Laboratory results reported in PMC4612324, “Comparing the efficacy and neuroinflammatory potential of three anti-abeta antibodies” (Acta Neuropathologica, 2015).

Target: T1, Aβ 1-40 peptide (UniProt P05067 672-711)
T1 construct: amyloid beta peptide Aβ 1-40, cut product of the amyloid precursor protein (APP); the methods call it a bought peptide, the results a 'recombinant peptide'; also called recombinant peptide; immobilised Aβ; source: bought: America Peptide, Sunnyvale, CA
Assay: ELISA; Aβ1-40 peptide coated on Maxisorp plates (0.1 µg/ml, bicarbonate buffer pH 9.6); antibodies serially diluted in PBS/1 % BSA, 1 h at room temperature; detected with biotinylated anti-mouse IgG and streptavidin poly-HRP; relative affinity
Conditions: both partners purified

EC50: 0.0174 nM
B1: mC2 (murine parent antibody of Crenezumab), recombinant with mouse IgG2a constant region (antibody, V domains shown)
VH: EVQLVESGGGLVQPGGSLKLSCAASGFTFSSYGMSWVRQTPDKRLELVASINSNGGSTYYPDSVKGRFTISRDNAKNTLYLQMSSLKSEDTAMYYCASGDYWGQGSTLTVSS
VL: DVVMTQTPLSLPVSLGDQASISCRSSQSLVYSNGDTYLHWYLQKPGQSPKLLIYKVSNRFSGVPDRFSGSGSGTDFTLKISRVEAEDLGVYFCSQSTHVPWTFGGGTKLEIKR
notes: heavy chain variable domain of mC2; mouse IgG2a heavy chain constant domain; light chain variable domain of mC2; mouse kappa light chain constant domain; mouse IgG2a, kappa; variable domain joined directly to the constant domain (synthetic genes); also called murine version of Crenezumab; Crenezumab-mC2; source: HEK293 6E cells, transient transfection (pTT5), purified from culture media …
